Results taken from article PMC3093752.

Molecular target: T1, DNA polymerase kappa catalytic core (Polκ19-526) (human, UniProt Q9UBT6 19-526)
T1 sequence: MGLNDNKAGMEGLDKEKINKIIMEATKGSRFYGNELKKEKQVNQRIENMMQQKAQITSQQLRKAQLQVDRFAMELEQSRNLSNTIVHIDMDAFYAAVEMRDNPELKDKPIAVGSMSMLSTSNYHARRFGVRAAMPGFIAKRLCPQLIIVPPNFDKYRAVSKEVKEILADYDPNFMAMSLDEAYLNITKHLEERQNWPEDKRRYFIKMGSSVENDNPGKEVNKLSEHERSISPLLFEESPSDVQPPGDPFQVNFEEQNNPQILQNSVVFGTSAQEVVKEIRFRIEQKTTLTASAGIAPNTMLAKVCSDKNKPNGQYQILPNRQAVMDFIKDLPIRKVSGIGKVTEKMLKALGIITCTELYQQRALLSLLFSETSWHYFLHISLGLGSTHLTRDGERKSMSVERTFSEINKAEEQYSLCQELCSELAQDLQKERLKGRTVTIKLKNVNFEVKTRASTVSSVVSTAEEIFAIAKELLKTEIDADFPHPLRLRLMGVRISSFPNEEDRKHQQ
Assay: X-ray crystallography

B1: 13-nt/18-nt primer/template with cis-syn T-T dimer (dsDNA)
DNA 1: TTCCTTGGTCCTTCCCCC
DNA 2: GGGGGAAGGACCA
modifications: cis-syn cyclobutane thymine dimer in template (T5-T6, position from pairing with primer); 3'-terminal dideoxyadenosine on primer
binding result: binds
